The text below walks through data of article PMC10582461, “Self‐Aggregating Tau Fragments Recapitulate Pathologic Phenotypes and Neurotoxicity of Alzheimer's Disease in Mice” (Advanced Science, 2023).

This data set deals with the molecule itself. Nature of the data set: in vitro self-aggregation, non-reducing SDS-PAGE and immunoblot; tau-AC species alone (40-100 µM) in self-assembly buffer (10 mM HEPES pH 7.4, 100 mM NaCl, 1 mM DTT), 37 °C, shaking 250 rpm, no inducers; non-reducing SDS-PAGE, IB and CBB.

B1: tau‐AC‐TQDVSK (tau‐AC with the PHF6 motif substituted with hydrophilic residues) (domain or fragment, human, UniProt P10636-8 306-378, looked up)
chain: TQDVSKPVDLSKVTSKCGSLGNIHHKPGGGQVEVKSEKLDFKDRVQSKIGSLDNITHVPGGGNKKIETHKLTF
notes: human tau residues 306-378 of 2N4R (441 residues) with 306VQIVYK311 changed to TQDVSK; numbers count on: 2N4R tau (441 residues); source: E. coli Rosetta 2 (DE3), pET28a, purified
Consider B1, for which the binding result was “binds”.
